Laboratory results: patent US20240092919A1 (Ablynx, published 2024)
Substitutions are numbered along the chain they refer to. Like-named read-outs stand apart in the source and are kept apart here. Blank lines part the entries; values can stand above or below the binder they belong to.

How the values were obtained:
[1] = target: T1, Human T cell receptor on human primary T cells (human, UniProt P01848 1-140; P01850 1-176); test: flow cytometry, human primary T cells
T1 construct: whole, on cells
Procedure: (§2) The ISVD variants were characterized for binding to CHO-K1 huTCR(2XN9)/huCD3 or to human and cynomolgus primary T cells. […] Next, cells were washed 3 times with FACS buffer and incubated with 1 μg/ml ANTI-FLAG® M2 Ab (Sigma, F1804) and washed again. […] Subsequently, cells were resuspended in FACS buffer supplemented with 5 nM TO-PRO®-3 Iodide to distinguish live from dead cells, which are removed during the gating procedure. Cells were analyzed using a FACS Array flow cytometer (BD Biosciences) and Flowing Software. First a P1 population which represented more than 80% of the total cell population was selected based on FSC-SSC distribution. In this gate, 10000 cells were counted during acquisition. From this population the TO-PRO®-3+cells (dead cells) were excluded and the mean fluorescence intensity (MFI) PE value was calculated.
T1 TCR alpha (looked up): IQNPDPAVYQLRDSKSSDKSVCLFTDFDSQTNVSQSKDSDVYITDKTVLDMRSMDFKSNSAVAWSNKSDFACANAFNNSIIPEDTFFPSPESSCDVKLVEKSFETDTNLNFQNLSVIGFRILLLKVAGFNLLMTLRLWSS
T1 TCR beta (looked up): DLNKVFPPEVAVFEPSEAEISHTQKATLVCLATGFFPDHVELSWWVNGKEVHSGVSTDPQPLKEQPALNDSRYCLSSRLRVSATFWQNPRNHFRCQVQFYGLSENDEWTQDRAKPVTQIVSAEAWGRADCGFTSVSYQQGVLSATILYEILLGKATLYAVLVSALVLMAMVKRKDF

[2] = target: T2, Cynomolgus TCR(AEA41865/AEA41866)-zipper protein (cynomolgus monkey); test: table head: SPR ProteOn XPR36; text: BLI, Octet RED384, 25 C, immobilised TCR-zipper
T2 construct: also called cyTCR-zipper protein; cynoTCR zipper
T2 TCR alpha: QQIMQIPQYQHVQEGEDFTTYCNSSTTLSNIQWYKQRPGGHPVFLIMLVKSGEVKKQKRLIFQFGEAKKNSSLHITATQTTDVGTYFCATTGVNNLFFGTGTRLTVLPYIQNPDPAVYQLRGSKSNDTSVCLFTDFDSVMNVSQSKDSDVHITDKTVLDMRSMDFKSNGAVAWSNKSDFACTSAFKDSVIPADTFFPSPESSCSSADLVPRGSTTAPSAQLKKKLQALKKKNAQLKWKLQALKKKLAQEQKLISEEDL
T2 TCR beta: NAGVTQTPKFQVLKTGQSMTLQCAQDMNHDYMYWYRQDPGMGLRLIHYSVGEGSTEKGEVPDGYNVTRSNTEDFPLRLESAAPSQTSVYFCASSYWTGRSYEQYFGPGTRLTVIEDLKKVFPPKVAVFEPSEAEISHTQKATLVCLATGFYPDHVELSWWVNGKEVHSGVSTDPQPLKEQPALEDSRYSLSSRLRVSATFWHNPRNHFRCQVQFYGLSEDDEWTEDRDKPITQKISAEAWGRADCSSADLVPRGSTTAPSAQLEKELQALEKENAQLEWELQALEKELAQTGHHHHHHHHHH
Procedure: (§1) Affinity constants (KD) were calculated applying a 1:1 interaction model using the ForteBio Data Analysis software.

[3] = target: T1, Human T cell receptor on human primary …; test: flow cytometry, human primary T cells
Procedure: as §2

[4] = target: T3, Cynomolgus TCR(AEA41865/AEA41866)-zipper protein (cynomolgus monkey); test: BLI (Octet RED384), KD on cyTCR-zipper against KD on huTCR-zipper
T3 construct: also called cyTCR-zipper; cynoTCR-zipper protein
T3 TCR alpha: T2 TCR alpha
T3 TCR beta: T2 TCR beta
Procedure: as §1

[5] = target: T3, Cynomolgus …; test: SPR (ProteOn XPR36), KD on cyTCR-zipper against KD on huTCR-zipper
From the text: HuTCR-zipper or cyTCR-zipper protein was immobilized on a GLC sensor chip (between 100-200 RU) via amine coupling chemistry, using EDC/NHS for activation of the carboxyl groups on the chip surface (running buffer: HBS-EP+, pH7.4). […] Processed sensorgrams were fitted with the Langmuir model (1:1 interaction) using ProteOn Manager 3.1.0 (Version 3.1.0.6) software.

[6] = target: T4, Cynomolgus T cell receptor on the HSC-F cynomolgus T cell line (cynomolgus monkey); test: flow cytometry competition with Flag3-His6-tagged anti-TCR ISVD ligand, HSC-F cells
T4 construct: whole, on cells; also called HSC-F cells; HSC-F cyno T cell line (NIBIO JCRB1164)
Procedure: (§3) Subsequently, cells were resuspended in FACS buffer supplemented with 1 μg/ml Propidium Iodide (PI, Sigma, P4170) to distinguish live from dead cells. Cells were analyzed using a FACS Array flow cytometer (BD Biosciences) using Flowing Software. First a P1 population which represented more than 80% of the total cell population was selected based on FSC-SSC distribution. In this gate, 10000 cells were counted during acquisition. From this population the Propidium iodide or TO-PRO©-3 Iodide positive cells (dead cells) were excluded and the median or Mean PE value was calculated.

[7] = target: T1, Human T cell receptor on human primary …; test: flow cytometry competition with Flag3-His6-tagged anti-TCR ISVD ligand, human primary T cells
Procedure: as §3

[8] = target: T2, Cynomolgus …; test: SPR, ProteOn XPR36, 37 C, immobilised TCR-zipper
From the text: In brief, huTCR-zipper or cyTCR-zipper protein was immobilized on a GLC sensor chip (between 100-200 RU) via amine coupling chemistry, using EDC/NHS for activation of the carboxyl groups on the chip surface (running buffer: HBS-EP+, pH7.4). […] Processed sensorgrams were fitted with the Langmuir model (1:1 interaction) using ProteOn Manager 3.1.0 (Version 3.1.0.6) software.

[9] = target: T3, Cynomolgus …; test: SPR (ProteOn XPR36, 37°C), KD on huTCR-zipper against KD on cyTCR-zipper
[10] = target: T5, Cynomolgus TCR/cynomolgus CD3 complex on CHO-K1 cells (rhesus monkey (constant domains …)); test: flow cytometry on CHO-K1 cyTCR/cyCD3 cells; Flag3-His6-tagged ISVD, anti-FLAG M2 + PE goat anti-mouse; MFI (mean PE) [panel CHO-K1 cyTCR/cyCD3]
T5 construct: also called CHO-K1 cyTCR/cyCD3
Procedure: Next, cells were washed 3 times with FACS buffer and incubated with 1 μg/ml ANTI-FLAG® M2 Ab (Sigma, F1804) and washed again. […] Subsequently, cells were resuspended in FACS buffer supplemented with 5 nM TO-PRO®-3 Iodide to distinguish live from dead cells, which are removed during the gating procedure. Cells were analyzed using a FACS Array flow cytometer (BD Biosciences) and Flowing Software. First a P1 population which represented more than 80% of the total cell population was selected based on FSC-SSC distribution. In this gate, 10000 cells were counted during acquisition. From this population the TO-PRO®-3+ cells (dead cells) were excluded and the mean fluorescence intensity (MFI) PE value was calculated.
T5 TCR alpha: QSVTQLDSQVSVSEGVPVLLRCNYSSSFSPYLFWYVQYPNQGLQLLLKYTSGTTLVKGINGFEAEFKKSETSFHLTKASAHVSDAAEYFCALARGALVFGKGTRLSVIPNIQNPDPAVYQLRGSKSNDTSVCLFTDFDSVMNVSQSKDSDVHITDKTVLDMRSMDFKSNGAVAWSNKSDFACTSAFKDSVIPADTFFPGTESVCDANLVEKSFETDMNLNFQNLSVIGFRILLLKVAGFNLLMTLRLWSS
T5 TCR beta: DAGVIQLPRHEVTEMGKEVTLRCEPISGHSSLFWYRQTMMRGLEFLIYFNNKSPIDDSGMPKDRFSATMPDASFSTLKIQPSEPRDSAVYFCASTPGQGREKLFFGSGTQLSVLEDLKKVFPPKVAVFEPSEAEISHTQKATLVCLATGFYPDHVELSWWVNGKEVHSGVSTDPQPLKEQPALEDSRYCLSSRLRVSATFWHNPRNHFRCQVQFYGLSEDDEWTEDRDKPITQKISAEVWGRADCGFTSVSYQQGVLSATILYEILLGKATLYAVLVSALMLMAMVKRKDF
T5 chain 3: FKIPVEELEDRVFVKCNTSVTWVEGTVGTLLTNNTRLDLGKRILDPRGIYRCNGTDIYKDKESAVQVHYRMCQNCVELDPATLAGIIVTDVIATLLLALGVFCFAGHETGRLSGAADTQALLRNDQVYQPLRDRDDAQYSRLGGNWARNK
T5 chain 4: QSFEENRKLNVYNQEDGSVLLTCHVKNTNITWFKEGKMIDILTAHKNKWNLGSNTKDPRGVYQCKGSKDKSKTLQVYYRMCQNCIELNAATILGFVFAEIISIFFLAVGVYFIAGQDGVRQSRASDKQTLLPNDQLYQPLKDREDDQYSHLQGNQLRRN
T5 chain 5: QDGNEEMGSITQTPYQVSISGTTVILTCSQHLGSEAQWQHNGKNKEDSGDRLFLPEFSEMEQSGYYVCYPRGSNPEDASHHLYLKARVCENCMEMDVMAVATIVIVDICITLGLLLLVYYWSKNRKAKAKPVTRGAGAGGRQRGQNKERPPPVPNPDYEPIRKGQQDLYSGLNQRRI
T5 chain 6: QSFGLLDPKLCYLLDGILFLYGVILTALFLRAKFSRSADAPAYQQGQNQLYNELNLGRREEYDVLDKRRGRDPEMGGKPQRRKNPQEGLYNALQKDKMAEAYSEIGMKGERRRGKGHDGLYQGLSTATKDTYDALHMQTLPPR

[11] = target: T1, Human T cell receptor on human primary …; test: flow cytometry on human primary T cells; Flag3-His6-tagged ISVD, anti-FLAG M2 + PE goat anti-mouse; MFI (mean PE)
Procedure: as §2

[12] = target: T6, cynomolgus CD123 on cells (cynomolgus monkey); test: flow cytometry on transfected cells, cynomolgus CD123 against human CD123
T6 construct: whole, on cells; also called HEK293 cyno CD123; cynomolgus CD123 transfected cell lines

[13] = target: T7, cynomolgus CD33 on cells (cynomolgus monkey); test: flow cytometry on transfected cells, cynomolgus CD33 against human CD33
T7 construct: whole, on cells; also called CHO cy CD33; CHO Flp-In cynoCD33

B1: T0170056G05 (VHH, not shown: small tags and cut ends)
VHH: EVQLVESGGGLVQPGGSLRLSCVASGDVHKINFLGWYRQAPGKEREKVAHISIGDQTDYADSAKGRFTISRDESKNMVYLQMNSLKPEDTAVYFCRAFSRIYPYDYWGQGTLVTVSS
notes: also called T01700056G05; parental anti-TCR ISVD
EC50 [1]: 83 nM
Kd [2]: 170 nM
EC50 [3]: 140 nM

B2: T0170056G05 (VHH, not shown: small tags and cut ends)
VHH: B1 VHH
notes: as for B1
difference in human-cynomolgus cross-reactivity based on KD [4]: 4.5 fold

B3: T017000624 (VHH, not shown: small tags and cut ends)
VHH: B1 VHH with L11V, D27Y, L34Y, M77T, K86R, V92L, F94Y, F98L, Y102W
difference in human-cynomolgus cross-reactivity based on KD [5]: 2.6 fold

B4: T017000680 (VHH)
VHH: B1 VHH with E1D, L11V, D27Y, L34Y, M77T, K86R, V92A, F94Y, F98L, Y102W
IC50 [6]: 730 nM
IC50 [7]: 100 nM
Kd [8]: 4.9 nM

B5: T017000680 (VHH)
VHH: B1 VHH with E1D, L11V, D27Y, L34Y, M77T, K86R, V92A, F94Y, F98L, Y102W
delta for human-cynomolgus cross-reactivity based on KD [9]: 1.8 fold

Second part, the binder after the results:

binding result [10]: no binding (tested: 3e-6 M)
binding result [11]: no binding (tested: 3e-6 M)
B6: cAbLys3 (VHH, not shown: small tags and cut ends)
VHH: DVQLQASGGGSVQAGGSLRLSCAASGYTIGPYCMGWFRQAPGKEREGVAAINMGGGITYYADSVKGRFTISQDNAKNTVYLLMNSLEPEDTAIYYCAADSTIYASYYECGHGLSTGGYGYDSWGQGTQVTVSS
notes: also called irrelevant anti-egg lysozyme ISVD

difference in EC50 between human and cynomolgus monkey [12]: 3 fold
B7: monovalent CD123 building block (VHH)
VHH: EVQLVESGGGVVQPGGSLRLSCAASGVIFSGNVMGWYRRQAPGKEREWVAAIAEGGSILYRDSVKGRFTISRDNAKNTVYLQMNSLRPEDTALYYCNSHPPVLPYWGQGTLVTVSS

difference in EC50 between human and cynomolgus monkey [13]: < 2 fold
B8: monovalent CD33 building block (VHH)
VHH: EVQLVESGGGVVQPGGSLRLSCAASGGVFRLNSMGWFRQAPGKQRELVAIITSDGDTNYADSVKGRFTISRDQAKNTVYLQMNSLRPEDTALYYCQITYSTSSYSFPINTWGQGTLVTVSS
